# Biological target: Recombinant Ebola virus (EBOV) glycoprotein (Ebola virus (Zaire ebolavirus)) (UniProt Q05320)
# Experiment: SEC + cross-linking
substance,measurement,value
Recombinant Ebola virus (EBOV) glycoprotein (from UniProt Q05320) (natural protein),stoichiometry N,3
